The DeepSol protein solubility set

Experiment: soluble on expression in E. coli; label from the status in PepcDB or PDB records

| Sequence | soluble on expression in E. coli |
| --- | --- |
| MAHHHHHHMLGKLGLRTEAYPFDFSRVTLDGLMHFIRNGFAEGFYPPGPLPYRPECVGPWVLFRGQHTAFAHFDLNDPHVQAHFQVKMRRFDAVLNSPERPVTFFRTVTARYPQQELALALDLEEAVARRNPSLDFRIVFMVHDQGLRANAVQLAPLSPRVTLWTLQYRGLPGDTLFDRTHTAYRTVMMHSVAESNWPAVNVGVATPPPATVAPAEARDFESGALRCDGAIRTDDVPLSDLTVDRFPWRSHDNLALIDGVASVGGTCAGIGSTKMLEDASAALQVEGRVRRKCRYCGDATYHAAGRPFRTERPFTDEEDQLVLIHLYQILTGGDKVAAVEKLAHEMRRGTYEVICRIQYLTNSSTKLMDSIDPASPSDS | not soluble |
| MATFKDFRNSVKPNWCPGCGDFSVQAAIQRAAANVGLNPDELAVISGIGCSGRISGYINSYGVHSIHGRALPIAQGVKMANRDLTVIASGGDGDGFAIGMGHTIHSIRRNIDITYIVMDNQIYGLTKGQTSPRSEAGFKTKSTPQGSIEPSLNVMEMALTAGATFVAQSFSSDLKELTQIIEAGINHKGFSLINVFSPCVTYNKVNTYDWFKENLTKLSTVEGYDPSNRMMAMQTLMENNGLVTGLIYQNTKQPSYQELVKGYSEEPLVKSDLNMDQKMFDELVAEFM | not soluble |
| MNNNNKAKTLITQLEQEINWVEELNTLLSEEKEILSTSQFNQLETLAEKKQELSTKLEASAKQRVDLIKESNPGDKPHGLLLSDFLKNCATEDGIQINHLNNTLAERLNLCRELNTINGQVIANNMYTRQQIVNALSGNKSDAVSVYTSNGNLETPSESSHHEEA | soluble |
| AARRALIVLAHSEKTSFNYAMKEAAVEALKKRGWEVLESDLYAMNFNPIISRNDITGELKDSKNFQYPSESSLAYKEGRLSPDIVAEHKKLEAADLVIFQFPLQWFGVPAILKGWFERVLVAGFAYTYAAMYDNGPFQNKKTLLSITTGGSGSMYSLQGVHGDMNVILWPIQSGILRFCGFQVLEPQLVYSIGHTPPDARMQILEGWKKRLETVWEETPLYFAPSSLFDLNFQAGFLLMKEVQEEQKKNKFGLSVGHHLGKSIPADNQIKARK | soluble |
| MSLKVFQFKDWAVACDNIRHCEANGTQAGDGDNPVSLLLSRDAGPGSRLSAQLDVDDPDGDKVGKLTLKVGRIKWTGIDAEQAFSDAQTTQLLAAMLDADEVALADGKREWTLSLAGLKAALLKMDDVQGRVGTVGALVKKGGKPESAAPAAQPAPLLVPLAPPAARPGDQKLLPAILKQLRAVDKACWDELPDAEHPDVQLYRLSASQVLVLRECGRGAYQGSYKAWTSGDAPPFHPREVPLRGSDGKETFLMNASFDKGELSSYAKGRGIGDCGSGASWAWTGKDFKLMSAQEAPQCRGIAGGVSLRTWVTRQKEGHHHHHH | soluble |
| MVNQQEEINLSVALVTRNRPDSLERCLKSLRDQKVQPFEVVVSDDSDDLYKSSTKEIAQKWGCRYIDGPKRGLYANRNYVALACYGTHIRTMDDDHEFPEQHIEVCLNAIQSDPSSIWIIGEYSPTSSIENAPHPCPGQLHPRGFSFYPKDTQNCWAIADGASIYPKKIFASGLRFVEYYKFGASYLEWGSRLYYLSYRIRHLDSTYIIHHFNPKARSFSDQEMDQSSRFFAMLCHSFLYQSTFKNKCLFSYEILKQFILDPKLTIKCIINSWSNFELFSRSFCALEHHHHHH | not soluble |
| MSAQINNIRPEFDREIVDIVDYVMNYEISSKVAYDTAHYCLLDTLGCGLEALEYPACKKLLGPIVPGTVVPNGVRVPGTQFQLDPVQAAFNIGAMIRWLDFNDTWLAAEWGHPSDNLGGILATADWLSRNAVASGKAPLTMKQVLTAMIKAHEIQGCIALENSFNRVGLDHVLLVKVASTAVVAEMLGLTREEILNAVSLAWVDGQSLRTYRHAPNTGTRKSWAAGDATSRAVRLALMAKTGEMGYPSALTAPVWGFYDVSFKGESFRFQRPYGSYVMENVLFKISFPAEFHSQTAVEAAMTLYEQMQAAGKTAADIEKVTIRTHEACIRIIDKKGPLNNPADRDHCIQYMVAIPLLFGRLTAADYEDNVAQDKRIDALREKINCFEDPAFTADYHDPEKRAIANAITLEFTDGTRFEEVVVEYPIGHARRRQDGIPKLVDKFKINLARQFPTRQQQRILEVSLDRARLEQMPVNEYLDLYVI | soluble |
| MKILLVFDFDNTIIDDNSDTWIVQCAPNKKLPIELRDSYRKGFWTEFMGRVFKYLGDKGVREHEMKRAVTSLPFTPGMVELFNFIRKNKDKFDCIIISDSNSVFIDWVLEAASFHDIFDKVFTNPAAFNSNGHLTVENYHTHSCNRCPKNLCKKVVLIEFVDKQLQQGVNYTQIVYIGDGGNDVCPVTFLKNDDVAMPRKGYTLQKTLSRMSQNLEPMEYSVVVWSSGVDIISHLQFLIKD | not soluble |
| MGSDKIHHHHHHMTINFRRNALQLSVAALFSSAFMANAADVPQVKVTVTDKQCEPMTITVNAGKTQFIIQNHSQKALEWEILKGVMVVEERENIAPGFSQKMTANLQPGEYDMTCGLLTNPKGKLIVKGEATADAAQSDALLSLGGAITAYKAYVMAETTQLVTDTKAFTDAIKAGDIEKAKALYAPTRQHYERIEPIAELFSDLDGSIDAREDDYEQKAADPKFTGFHRLEKALFGDNTTKGMDQYAEQLYTDVVDLQKRISELAFPPSKVVGGAAGLIEEVAASKISGEEDRYSHTDLWDFQANVEGSQKIVDLLRPQLQKANPELLAKVDANFKKVDTILAKYRTKDGFETYDKLTDADRNALKGPITALAEDLAQLRGVLGLD | not soluble |
| MILVGDGEDLEPPDDFLRREVADSVLNLLGDYRFLTKGYFVSLHAEENGCEVFPPVKNALDAYRAPLFMNAVRKLGLETPEFSIRSEPKFERGVLLPLNPFSKNSAKVVKTSHQYAKAFKRLSMNRYPVVQVKSEKYDSFNLYLWRADKEEYNFIAEKIFKGLRIPLGKVLVDVTDGMAKPFYFMPVEKGEINLRLVFEVLYENCLLR | not soluble |
| MAGDPMGRQRGAGLGGGHDEREQTLNQMLVEMDGFSGNDGVIVIAATNRPDVLDPALTRPGRFDRQVVVGLPDVKGREQILKVHMRKVSVAQDVDAMTLARGTPGYSGADLANLVNEAALFAARVNKRTVTMLEFEKAKDKINMGPERRTMIMTDKQKESTAYHEAGHAIVGYLVPEHDPVHKVTIIPRGRALGVTFFLPEGDQISISQKQLESKLSTLYAGRLAEDLIYGEENISTGASNDIKVATNIARNMVTQWGFSEKLGPILYTEDEGEVFLGRSMAKAKHMSDETAHSIDEEVRAIVNRNYARAREILIDNMDILHAMKDALVKYETIEEEQIKQLMNREPVTPPSGWGEPKTQQAAYANSTTNDTKPESAVENTDDFNVAAALEHHHHHH | not soluble |
| GAMGSSRKSKAELQSEERKRIDELIESGKEEGMKIDLIDGKGRGVIATKQFSRGDFVVEYHGDLIEITDAKKREALYAQDPSTGCYMYYFQYLSKTYCVDATRETNRLGRLINHSKCGNCQTKLHDIDGVPHLILIASRDIAAGEELLYDYGDRSKASIEAHPWLKH | soluble |
| MLRWITAGESHGRALVAVVEGMVAGVHVTSADIADQLARRRLGYGRGARMTFERDAVTVLSGIRHGSTLGGPIAIEIGNTEWPKWETVMAADPVDPAELADVARNAPLTRPRPGHADYAGMLKYGFDDARPVLERASARETAARVAAGTVARAFLRQALGVEVLSHVISIGASAPYEGPPPRAEDLPAIDASPVRAYDKAAEADMIAQIEAAKKDGDTLGGVVEAVALGLPVGLGSFTSGDHRLDSQLAAAVMGIQAIKGVEIGDGFQTARRRGSRAHDEMYPGPDGVVRSTNRAGGLEGGMTNGQPLRVRAAMKPISTVPRALATVDLATGDEAVAIHQRSDVCAVPAAGVVVETMVALVLARAALEKFGGDSLAETQRNIAAYQRSVADREAPAARVSGHHHHHH | soluble |
| MSCGYTGPINEQNKENIKRAIAMHAAARRTRMLQQLREGLQLYRLVDIMEKNKEVCRSHFVFEGGNDQVDSQYIVSHLDPKMSESGTLKHSKEMQILNNFQDFLMELEDGGPEDEEALCVSKVMQWLSGQAHVHLLLSERQAFKITVLFDHTCMERMPDHRICYPVDSAWTQTITFPTAHSTSLNQFKENMRIAVQQGAYFYRV | not soluble |
| VNPKQPDLGVHVHLVRNVCTVSLDSSGASLDRRGYRTEAGEAPLRETLAAALVEMTGWDGTVPLLDPMCGSGTILVEAALKALNRAPGLIRERFGFQHWPSFDSSLWLRLVTEARQGERTSLESPLLGSDQQADLLSVAAANARRAGVEQHISFTSGDVRGLTPPPAPGIILFNPPYGRRLGDEEGLRVLYRQIGDVLKQRCAGYTAWLLTGGPELAKAVGLRASRRIVLFNGPLECRFLRFDLY | not soluble |
| SSVLRSMDKLPDLNRATVLLVSTEDALLQQLAESMLKDDCASELRVHLANSLPLPSNVNRPRIDLIVFVINLHSKYSLQKVEEFLQHVDSSFFLGKVCFLVTGAGQESHCSVHQNTVIKLAHTYRSPLFLCDLQKVESFRAAMARRLVRILQICAGHVPGVSALNLMSLLRSPENPPSKEL | soluble |
| MPPVCGRRCSRTGEIRGYSGSIVRRWKRVETRDGPRFRSSLAPHEAALLKNLAGAMIGLLDDRDSSSPSDELEEITGIKTGHAQRPGDPTLRRLLPDFYRPDDLDDDDPTAVDGSESFNAALRSLHEPEIIDAKRVAAQQLLDTVPDNGGRLELTESDANAWIAAVNDLRLALGVMLEIGPRGPERLPGNHPLAAHFNVYQWLTVLQEYLVLVLMGSR | not soluble |
| MGSDKIHHHHHHMYLALIGDIINSKQILERETFQQSFQQLMTELSDVYGEELISPFTITAGDEFQALLKPSKKVFQIIDHIQLALKPVNVRFGLGTGNIITSINSNESIGADGPAYWHARSAINHIHDKNDYGTVQVAICLDDEDQNLELTLNSLISAGDFIKSKWTTNHFQMLEHLILQDNYQEQFQHQKLAQLENIEPSALTKRLKASGLKIYLRTRTQAADLLVKSCTQTKGGSYDF | not soluble |
| MSLKVGVALSGGVDSAVALYLLLKEGHEVKAFHMKTKEDEFFIKKEIKKKVCCSPSDTADAMRIAHFLGVEIEIVDVKEIFREKVIEPFKRDLLKGLTPNPCAHCNRFVKFGYLMDYVLNQGFDAFASGHYARIEFSEKYGRKVIKKGVDLKKDQSYFLARIEPWRIERLIFPNGIYTKEEIRKIAEEAGIHVAKKQESQDVCFIPDGSIENFLKDEGITLKDGDIITPEGEVVGRHFGYPLYTIGQRKGFKIEKFGRRYYVRGKIPEKNVVVVSDLEDVFFSGLIAEDPVWHVEVPEEFRCVCRVRKKSEEAPAVVKVKDNEVEVSFEKKVFAVTPGQIAAFYDGDTLLGGAIIKEGIREGHHHHHH | soluble |
| MTELLVTPKSLSHMETLIDLGADAFVIGEQKFGLRLPGEFNRQQMTEAVALAHKNDKKVYAAVNGLFHNYHLDAVEDYINFLHEIRVDRIIFGDPAVVMYVKAQENPIPLHWNAETLVTNHFQCNYWGKRGASRAVLARELNLDEIINIKENSNVEIEVQVQGMTCMFQSKRMLLGNYYTFQDRQMKIERRNDEQSLLLYDEERQNNYPVYEDYNGTHIMSPNDICLIEELAPFFEAGIDSFKIDGILQTEEYINVVTEQYRQAIDLYNEDPEIYEDEKFMLMDPIEEIQPDHRPFDEGFLYKQTVY | not soluble |
| MKDVVEYLVRYLVDRPEAVRVQVRRGKEGTVYLVEVAPEDKGRLIGKGGRVIESLRTVVRAYAKRKVGVEVR | soluble |
